The values that follow come from US11491212.

Chain of Factor X, P00742 (P00742 whole entry, looked up): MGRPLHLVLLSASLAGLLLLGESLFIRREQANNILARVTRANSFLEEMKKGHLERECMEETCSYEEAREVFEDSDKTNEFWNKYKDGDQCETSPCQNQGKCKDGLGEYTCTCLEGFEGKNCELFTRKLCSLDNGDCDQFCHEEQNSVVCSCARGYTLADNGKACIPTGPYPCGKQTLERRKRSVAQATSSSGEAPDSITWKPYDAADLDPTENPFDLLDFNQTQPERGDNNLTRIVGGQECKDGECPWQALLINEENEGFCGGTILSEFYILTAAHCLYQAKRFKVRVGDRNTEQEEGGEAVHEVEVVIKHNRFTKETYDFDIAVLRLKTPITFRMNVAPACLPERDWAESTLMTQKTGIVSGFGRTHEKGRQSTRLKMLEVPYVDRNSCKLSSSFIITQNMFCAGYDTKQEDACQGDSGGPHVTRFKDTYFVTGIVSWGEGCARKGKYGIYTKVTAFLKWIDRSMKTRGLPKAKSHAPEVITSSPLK
Chain of Factor X (FX), P00742 (P00742 whole entry, looked up): as above

B1: FIXa-Y155F/K228N/R318Y/R338E/R403E/E410N (protein)
chain 1: not shown
chain 2: not shown
In the case of B1, in the series with Factor X (FX), P00742, the “% of WT kcat/KM (against Catalyst Biosciences WT FIXa)” value was 356%; the KM was 0.0408 µM; the kcat/KM for activation of FX by FIXa in the Xase complex (FVIIIa, PC/PS vesicles, Ca2+), fluorogenic Spectrafluor FXa read-out was 1.6e+08 M⁻¹ s⁻¹. Further, in the series with Factor X, P00742, the kcat was found to be 6.7 s⁻¹.

B2: FIXa-R318Y/R338E/R403E/E410S (protein)
chain 1: not shown
chain 2: not shown
Consider B2, for which, in the series with Factor X (FX), P00742, the “% of WT kcat/KM (against Catalyst Biosciences WT FIXa)” value came to 458%; the KM came to 0.0364 µM; the kcat/KM for activation of FX by FIXa in the Xase complex (FVIIIa, PC/PS vesicles, Ca2+), fluorogenic Spectrafluor FXa read-out was determined as 2.1e+08 M⁻¹ s⁻¹. Besides, the kcat with Factor X, P00742 is 7.4 s⁻¹.

B3: FIXa-Y155F/K247N/N249S/R318Y/R338E/E410N (protein)
chain 1: not shown
chain 2: not shown
As to B3, in the series with Factor X (FX), P00742, the “% of WT kcat/KM (against Catalyst Biosciences WT FIXa)” value amounted to 717%; the KM turned out to be 0.0147 µM; the kcat/KM for activation of FX by FIXa in the Xase complex (FVIIIa, PC/PS vesicles, Ca2+), fluorogenic Spectrafluor FXa read-out was found to be 3.3e+08 M⁻¹ s⁻¹. The kcat with Factor X, P00742 is 4.5 s⁻¹.

B4: FIXa-Y155F/K247N/N249S/R318Y/R338E/R403E/E410N (protein)
chain 1: not shown
chain 2: not shown
In the case of B4, in the series with Factor X (FX), P00742, the “% of WT kcat/KM (against Catalyst Biosciences WT FIXa)” value was 405%; the KM turned out to be 0.0363 µM; the kcat/KM for activation of FX by FIXa in the Xase complex (FVIIIa, PC/PS vesicles, Ca2+), fluorogenic Spectrafluor FXa read-out was determined as 1.9e+08 M⁻¹ s⁻¹. The kcat in the series with Factor X, P00742 was 6.2 s⁻¹.

B5: FIXa-D104N/K106S/Y155F/K247N/N249S/R318Y/R338E/R403E/E410N (protein)
chain 1: not shown
chain 2: not shown
Regarding B5, in the series with Factor X (FX), P00742, the “% of WT kcat/KM (against Catalyst Biosciences WT FIXa)” value is 292%; the KM was 0.0518 µM; the kcat/KM for activation of FX by FIXa in the Xase complex (FVIIIa, PC/PS vesicles, Ca2+), fluorogenic Spectrafluor FXa read-out came out at 1.3e+08 M⁻¹ s⁻¹. Also, the kcat with Factor X, P00742 worked out at 6.9 s⁻¹.

B6: FIXa K228N/K247N/N249S/R318Y/R338E/T343R/E410N (protein)
chain 1: not shown
chain 2: not shown
As to B6, the kcat (s^-1), activation of FX by FIXa in the Xase complex with Factor X (FX), P00742 is 4.7 s⁻¹. Also, in the series with Factor X, P00742, the “% of WT kcat/KM” value was determined as 278% and the kcat/KM was 1.3e+08 M⁻¹ s⁻¹.

B7: FIXa K228N/K247N/N249S/R318Y/T343R/R403E/E410N (protein)
chain 1: not shown
chain 2: not shown
In the case of B7, in the series with Factor X (FX), P00742, the kcat (s^-1), activation of FX by FIXa in the Xase complex was 8.1 s⁻¹. For the same protein, in the series with Factor X, P00742, the “% of WT kcat/KM” value amounted to 153% and the kcat/KM came to 7.1e+07 M⁻¹ s⁻¹.

B8: FIXa-I251S/R318Y/R338E/E410N (protein)
chain 1: not shown
chain 2: not shown
For B8, in the series with Factor X (FX), P00742, the “% of WT kcat/KM (against Catalyst Biosciences WT FIXa)” value is on record as 849%; the KM came to 0.0161 µM; the kcat/KM for activation of FX by FIXa in the Xase complex (FVIIIa, PC/PS vesicles, Ca2+), fluorogenic Spectrafluor FXa read-out came out at 3.9e+08 M⁻¹ s⁻¹. The kcat with Factor X, P00742 was 6.4 s⁻¹.
